Assays:
[1] = biological target: GPCMV gB (glycoprotein B of guinea pig CMV strain V545/82) (guinea pig cytomegalovirus); assay: cell-based or functional assay
[2] = biological target: CMV gp116 epitope AD2 site peptide … (CMV (human cytomegalovirus)); assay: kinetic affinity measurement, method not stated; antigen taken as AD2 peptide; same value as r7, table re-sorted by koff
[3] = biological target: CMV gp116 epitope AD2 site peptide … (CMV (human cytomegalovirus)); assay: kinetic affinity measurement, method not stated; antigen taken as CMV gp116 AD2 peptide

## ITC88 control antibody
[1]
  neutralization of GPCMV V545/82 entry into JH4 cells; highest concentration tested without effect: > 300 ng/mL
[2]
  Kd: 1.51 nM
  koff: 0.00116 s⁻¹
  kon: 767000 M⁻¹ s⁻¹
[3]
  Kd: 1.51 nM
  koff: 0.00116 s⁻¹
  kon: 767000 M⁻¹ s⁻¹

— patent publication US20150152166A1
